Experimental data from IntAct's records for PubMed 35512704.

B1: Mothers against decapentaplegic homolog 4 (Homo sapiens), Q13485 (parent)
chain: MDNMSITNTPTSNDACLSIVHSLMCHRQGGESETFAKRAIESLVKKLKEKKDELDSLITAITTNGAHPSKCVTIQRTLDGRLQVAGRKGFPHVIYARLWRWPDLHKNELKHVKYCQYAFDLKCDSVCVNPYHYERVVSPGIDLSGLTLQSNAPSSMMVKDEYVHDFEGQPSLSTEGHSIQTIQHPPSNRASTETYSTPALLAPSESNATSTANFPNIPVASTSQPASILGGSHSEGLLQIASGPQPGQQQNGFTGQPATYHHNSTTTWTGSRTAPYTPNLPHHQNGHLQHHPPMPPHPGHYWPVHNELAFQPPISNHPAPEYWCSIAYFEMDVQVGETFKVPSSCPIVTVDGYVDPSGGDRFCLGQLSNVHRTEAIERARLHIGKGVQLECKGEGDVWVRCLSDHAVFVQSYYLDREAGRAPGDAVHKIYPSAYIKVFDLRQCHRQMQQQAATAQAAAAAQAAAVAGNIPGPGSVGGIAPAISLSAAAGIGVDDLRRLCILRMSFVKGWGPDYPRQSIKETPCWIEIHLHRALQLLDEVLHTMPIADPQPLD
partner: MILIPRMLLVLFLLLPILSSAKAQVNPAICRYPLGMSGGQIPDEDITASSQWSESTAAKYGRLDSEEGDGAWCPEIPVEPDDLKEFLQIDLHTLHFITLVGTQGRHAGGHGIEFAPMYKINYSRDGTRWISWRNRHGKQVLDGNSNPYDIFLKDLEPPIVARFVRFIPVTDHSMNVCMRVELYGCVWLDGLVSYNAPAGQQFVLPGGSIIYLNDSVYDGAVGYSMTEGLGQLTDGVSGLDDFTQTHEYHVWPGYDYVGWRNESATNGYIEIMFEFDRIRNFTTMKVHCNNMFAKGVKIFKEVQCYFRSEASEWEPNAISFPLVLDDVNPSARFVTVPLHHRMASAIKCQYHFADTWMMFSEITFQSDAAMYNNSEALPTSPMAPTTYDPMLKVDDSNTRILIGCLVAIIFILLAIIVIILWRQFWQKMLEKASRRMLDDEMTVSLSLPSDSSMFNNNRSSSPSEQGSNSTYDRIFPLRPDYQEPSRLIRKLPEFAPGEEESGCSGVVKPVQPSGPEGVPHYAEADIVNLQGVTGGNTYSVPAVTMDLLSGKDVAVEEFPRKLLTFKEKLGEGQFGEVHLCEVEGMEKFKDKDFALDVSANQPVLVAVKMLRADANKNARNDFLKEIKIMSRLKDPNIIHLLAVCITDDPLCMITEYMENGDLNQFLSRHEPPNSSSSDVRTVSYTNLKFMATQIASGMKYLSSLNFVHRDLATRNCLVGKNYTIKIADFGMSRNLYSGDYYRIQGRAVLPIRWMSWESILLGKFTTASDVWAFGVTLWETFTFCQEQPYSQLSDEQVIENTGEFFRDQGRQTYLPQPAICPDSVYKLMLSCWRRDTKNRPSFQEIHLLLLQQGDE
B2: Mothers against decapentaplegic homolog 4 (Homo sapiens), Q13485 (parent)
chain: B1 chain
partner: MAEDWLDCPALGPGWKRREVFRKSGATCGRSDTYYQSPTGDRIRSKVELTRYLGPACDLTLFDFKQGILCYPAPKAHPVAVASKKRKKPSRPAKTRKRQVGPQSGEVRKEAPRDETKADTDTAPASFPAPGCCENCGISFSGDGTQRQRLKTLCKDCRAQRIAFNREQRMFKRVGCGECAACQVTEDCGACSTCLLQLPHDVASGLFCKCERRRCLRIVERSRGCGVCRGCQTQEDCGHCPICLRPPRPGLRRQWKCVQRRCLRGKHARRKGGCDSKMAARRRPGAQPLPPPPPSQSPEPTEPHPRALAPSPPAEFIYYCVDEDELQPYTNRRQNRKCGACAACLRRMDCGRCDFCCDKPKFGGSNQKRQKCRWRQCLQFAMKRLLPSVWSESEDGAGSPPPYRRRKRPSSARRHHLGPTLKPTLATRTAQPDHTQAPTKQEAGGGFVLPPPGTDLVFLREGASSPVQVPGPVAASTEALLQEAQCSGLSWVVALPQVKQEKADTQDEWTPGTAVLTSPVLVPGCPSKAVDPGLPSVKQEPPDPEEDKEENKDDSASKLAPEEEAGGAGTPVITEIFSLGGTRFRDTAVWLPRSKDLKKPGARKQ
B3: Mothers against decapentaplegic homolog 4 (Homo sapiens), Q13485 (parent)
chain: B1 chain
partner: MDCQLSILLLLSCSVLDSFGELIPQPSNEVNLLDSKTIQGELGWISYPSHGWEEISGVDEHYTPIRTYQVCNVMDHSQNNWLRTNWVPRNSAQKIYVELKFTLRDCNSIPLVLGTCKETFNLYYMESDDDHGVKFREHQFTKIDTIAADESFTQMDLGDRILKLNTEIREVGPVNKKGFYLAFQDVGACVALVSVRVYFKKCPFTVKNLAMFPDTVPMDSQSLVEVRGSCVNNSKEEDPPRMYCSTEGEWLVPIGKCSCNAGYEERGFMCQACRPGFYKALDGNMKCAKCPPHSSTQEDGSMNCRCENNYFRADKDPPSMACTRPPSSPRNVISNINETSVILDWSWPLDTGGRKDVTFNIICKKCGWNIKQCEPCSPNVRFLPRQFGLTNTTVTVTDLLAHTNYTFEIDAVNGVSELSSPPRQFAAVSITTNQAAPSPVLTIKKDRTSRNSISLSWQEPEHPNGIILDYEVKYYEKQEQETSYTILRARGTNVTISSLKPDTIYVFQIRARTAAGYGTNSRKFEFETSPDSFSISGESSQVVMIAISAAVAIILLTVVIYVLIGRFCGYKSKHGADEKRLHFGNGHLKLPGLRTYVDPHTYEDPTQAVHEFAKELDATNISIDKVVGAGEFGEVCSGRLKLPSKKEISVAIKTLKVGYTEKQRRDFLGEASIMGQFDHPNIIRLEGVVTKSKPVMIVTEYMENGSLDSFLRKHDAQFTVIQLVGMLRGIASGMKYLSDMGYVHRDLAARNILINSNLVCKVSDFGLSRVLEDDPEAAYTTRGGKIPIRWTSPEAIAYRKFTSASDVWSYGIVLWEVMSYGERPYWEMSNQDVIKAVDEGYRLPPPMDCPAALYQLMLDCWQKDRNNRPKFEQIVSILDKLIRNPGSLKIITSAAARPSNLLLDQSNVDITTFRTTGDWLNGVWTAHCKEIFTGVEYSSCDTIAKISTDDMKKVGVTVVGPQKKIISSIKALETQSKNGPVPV
B4: Mothers against decapentaplegic homolog 4 (Homo sapiens), Q13485 (parent)
chain: B1 chain
partner: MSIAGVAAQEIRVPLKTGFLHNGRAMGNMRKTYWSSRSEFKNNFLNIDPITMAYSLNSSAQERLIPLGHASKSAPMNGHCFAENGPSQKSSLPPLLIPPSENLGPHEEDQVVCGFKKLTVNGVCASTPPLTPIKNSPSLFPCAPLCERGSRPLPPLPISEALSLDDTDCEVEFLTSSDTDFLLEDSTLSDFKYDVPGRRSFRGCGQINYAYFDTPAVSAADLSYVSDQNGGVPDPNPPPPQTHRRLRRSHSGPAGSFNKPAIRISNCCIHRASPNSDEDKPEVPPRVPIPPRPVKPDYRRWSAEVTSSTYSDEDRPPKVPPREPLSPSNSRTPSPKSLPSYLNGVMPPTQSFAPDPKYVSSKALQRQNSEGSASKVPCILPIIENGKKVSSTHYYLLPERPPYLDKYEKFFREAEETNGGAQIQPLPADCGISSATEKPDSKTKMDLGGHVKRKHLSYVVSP
B5: Mothers against decapentaplegic homolog 4 (Homo sapiens), Q13485 (parent)
chain: B1 chain
partner: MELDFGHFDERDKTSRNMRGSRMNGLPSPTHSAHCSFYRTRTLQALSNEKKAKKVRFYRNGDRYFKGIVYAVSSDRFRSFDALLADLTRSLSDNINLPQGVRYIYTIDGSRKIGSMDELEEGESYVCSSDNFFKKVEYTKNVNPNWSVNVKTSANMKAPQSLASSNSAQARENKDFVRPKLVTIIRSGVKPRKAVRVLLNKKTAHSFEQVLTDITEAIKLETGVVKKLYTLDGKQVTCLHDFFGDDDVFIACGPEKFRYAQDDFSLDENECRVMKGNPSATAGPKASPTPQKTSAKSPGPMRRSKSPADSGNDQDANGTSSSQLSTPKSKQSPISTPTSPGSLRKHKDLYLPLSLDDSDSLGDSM
B6: Mothers against decapentaplegic homolog 4 (Homo sapiens), Q13485 (parent)
chain: B1 chain
partner: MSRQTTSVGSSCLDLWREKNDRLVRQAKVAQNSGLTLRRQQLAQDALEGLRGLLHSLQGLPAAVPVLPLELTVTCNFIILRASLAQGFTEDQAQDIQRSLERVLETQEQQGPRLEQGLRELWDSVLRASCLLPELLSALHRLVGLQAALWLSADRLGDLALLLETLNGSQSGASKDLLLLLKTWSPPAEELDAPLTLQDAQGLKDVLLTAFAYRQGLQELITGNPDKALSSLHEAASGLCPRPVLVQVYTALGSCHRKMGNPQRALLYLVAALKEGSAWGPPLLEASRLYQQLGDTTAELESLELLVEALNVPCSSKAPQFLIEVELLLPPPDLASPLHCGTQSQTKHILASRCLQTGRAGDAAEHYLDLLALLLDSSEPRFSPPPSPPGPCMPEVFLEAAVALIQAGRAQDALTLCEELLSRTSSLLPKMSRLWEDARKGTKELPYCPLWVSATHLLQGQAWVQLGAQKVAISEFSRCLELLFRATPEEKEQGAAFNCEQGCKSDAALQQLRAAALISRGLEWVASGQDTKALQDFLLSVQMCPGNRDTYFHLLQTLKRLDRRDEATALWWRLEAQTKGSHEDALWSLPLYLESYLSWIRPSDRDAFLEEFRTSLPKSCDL

Variants of: B1
Conditions: with ddr2_human DDR2, Q16832

effect of a mutation on the interaction	Variant
with no effect	R361H

Variants of: B1
Conditions: with ddr2_human DDR2, Q16832
Remark: another data set of the same source

effect of a mutation on the interaction	Variant
with no effect	R361C

Variants of: B1
Conditions: with ddr2_human DDR2, Q16832
Remark: another data set of the same source

effect of a mutation on the interaction	Variant
with no effect	D351H

Variants of: B1
Conditions: with ddr2_human DDR2, Q16832
Remark: another data set of the same source

effect of a mutation on the interaction	Variant
with no effect	G386D

Variants of: B2
Conditions: with mbd1_human MBD1, Q9UIS9

effect of a mutation on the interaction	Variant
with no effect	G386D

Variants of: B2
Conditions: with mbd1_human MBD1, Q9UIS9
Remark: another data set of the same source

effect of a mutation on the interaction	Variant
with no effect	D351H

Variants of: B3
Conditions: with epha3_human EPHA3, P29320

effect of a mutation on the interaction	Variant
with no effect	G386D

Variants of: B3
Conditions: with epha3_human EPHA3, P29320
Remark: another data set of the same source

effect of a mutation on the interaction	Variant
increasing interaction strength	G386D

Variants of: B3
Conditions: with epha3_human EPHA3, P29320
Remark: another data set of the same source

effect of a mutation on the interaction	Variant
with no effect	R361C

Variants of: B3
Conditions: with epha3_human EPHA3, P29320
Remark: another data set of the same source

effect of a mutation on the interaction	Variant
with no effect	R361H

Variants of: B3
Conditions: with epha3_human EPHA3, P29320
Remark: another data set of the same source

effect of a mutation on the interaction	Variant
with no effect	D351H

Variants of: B4
Conditions: with errfi_human ERRFI1, Q9UJM3

effect of a mutation on the interaction	Variant
with no effect	G386D

Variants of: B4
Conditions: with errfi_human ERRFI1, Q9UJM3
Remark: another data set of the same source

effect of a mutation on the interaction	Variant
with no effect	D351H

Variants of: B4
Conditions: with errfi_human ERRFI1, Q9UJM3
Remark: another data set of the same source

effect of a mutation on the interaction	Variant
with no effect	R361C

Variants of: B4
Conditions: with errfi_human ERRFI1, Q9UJM3
Remark: another data set of the same source

effect of a mutation on the interaction	Variant
with no effect	R361H

Variants of: B5
Conditions: with dcx_human DCX

effect of a mutation on the interaction	Variant
with no effect	D351H

Variants of: B5
Conditions: with dcx_human DCX
Remark: another data set of the same source

effect of a mutation on the interaction	Variant
with no effect	R361H

Variants of: B5
Conditions: with dcx_human DCX
Remark: another data set of the same source

effect of a mutation on the interaction	Variant
with no effect	R361C

Variants of: B5
Conditions: with dcx_human DCX
Remark: another data set of the same source

effect of a mutation on the interaction	Variant
with no effect	G386D

Variants of: B6
Conditions: with fancg_human FANCG

effect of a mutation on the interaction	Variant
with no effect	R361H

Variants of: B6
Conditions: with fancg_human FANCG
Remark: another data set of the same source

effect of a mutation on the interaction	Variant
with no effect	R361C

Variants of: B6
Conditions: with fancg_human FANCG
Remark: another data set of the same source

effect of a mutation on the interaction	Variant
with no effect	G386D

Variants of: B6
Conditions: with fancg_human FANCG
Remark: another data set of the same source

effect of a mutation on the interaction	Variant
with no effect	D351H
